Assay results as given in a protein production outcome set (Wang et al. 2014).

assay: label from the status in PepcDB records

Row | Sequence | protein production
1 | MGNYKFRISEMLPNAWFHKLKDVTKHSKPKNKASSSSSNTCSKKKPSSDSLPQHSYFSNSLVANNPPHHNSPRNSLHTKKMSKRKTLYKPSLKPLTPPPLLVSASFNKSKINDQDSSYSLFPAIETSPESFVYSFYEEDDDDEFVEFSNFKINTKNKAFTKQKVKVIDSVEKACTASKPIKKPQKSHLSVKISRDEDDNEYKAEKKYQRQVSSGRKPSAGINLKRVNSPRIQLSGTRRSTSRRSESKQDVLESFAVMKRSVDPKKDFRESMIEMIEENNIRASKDLEDLLACYLTLNPKEYHDLIIHVFEQIWLQLTKTK | failed
2 | MGNYLLRKLSCLGENQKKPKKGNPDEERKRQEMTTFERKLQDQDKKSQEVSSTSNQENENGSGSEEVCYTVINHIPHQRSSLSSNDDGYENIDSLTRKVRQFRERSETEYALLRTSVSRPCSCTHEHDYEVVFPH | not failed
3 | MGPAVKKASKGILSDVLKCLTNNIKHMREFTLAVVDKMVAGLSDFVDATHLLKPASNRSD | failed
4 | MGPKVSVITVCYNAEEFIENAIYSVLNQSYENIEYIIIDGASKDNTVSIINKYRSVMACFISEPDKGMYEAMNKGIKAATGDILYFLNSDDVFYDEYVVENVVKVFQKNNNVELIYGPIIIRDPTTNESFIKPHDYITKSYFIYNSICQQGIFYKASVFNKCGQFNDTYKIVGDYEWELRAFYKYNIKRKYYEGIIAIFRDGGMCNCDKFSDLHAKERTKVIKEYFNIFVIYKYKFLLFCRSAIKRLELEHHHHHH | failed
5 | MGQAPDRPHLETFLARLRAGAKILELGCGGGQDSEYMLSAGFDVHPTDGTPDIAKAAQARLGIPVRTLLFENIEDAALYDAVWANACLLHVPRLALPGIIGRIHTALKPGGVFYASFKAGEVEGRDTFGRYYNYPSKAWLEETYGQFAWTEVEIEARQGSGYDKLPTDWLHVTATKALEHHHHHH | failed
6 | MGQMFGVACIDEQSGIVGQAWNNNSVRYISIDEDAVITIQSGPVVGKVAVSNDKTLAYGATINGANTVYVYKKSQAWVPSRLSDISSGTDVWAVALNGDNQWLYYVTANGRLGRIEVDNPTHNEILFEHNDFSGGPFAYIAYSAFEDCFYVTTDKNKILKVWVKEDGTHAYEQINQNNTGTTDGFLADEAKFQYLRGLTIDEDGNIFVCQGDNSHVIRKIAYDENMEKRYVTTVLGTSTVHGTDDGSPDIALFNGPQDISYDGNGGYWIAMRYEPALRKYSIELEHHHHHH | failed
7 | MGQPVASKGRGATPTVGKAMLNKYARAFFTRVLTPFAAFLIRRGVSPDTVTLLGTAGVVAGALVFYPMGEFFWGTVVITLFVFSDLVDGNMARQLGRSSRWGAFLDSTLDRVADGAIFGGLALWYAGGGDDIVLCAVSIFCLASGQVVSYTKARGEAIGLPVAVNGLVERAERLVVSLVAAGFAGLHKFGVPGIQYLLPIALWIVAVGSLVTLVQRVVTVRREAAEADAAAQESQGTEAAK | failed
8 | MGRCSHGLREGRRGEPVRDPTPLDRAGCSVLPGGAKLYYSMAFKMHVPPRGSGHIEEPRRLDKALKALKKSRLLDMLEKVDPGFQSLRVFETVHDPLYIKGILAELEAALDSYFIDSDTYISPGTQAALEALAASVEQASEHVAEGGKALVLGRPPGHHAGVAGPGLGAPSLGACLVNAAASLAYRLAGRGLKVLILDFDANHGNGTQEILQALPMGDRLFHLDMHQDWRKSFPWTGEPGVTGDGTALNIVLPEGSGDDIVLALIEGLEPLVNESEPDAVVVSMGFDGYSGDSPLTLTKLTSHTFHALGRLASRYPVAAVLETGFGRGLELGLPAFIAGLLGLGNPVQEEAIKSDEEVWREFLETNKEVVEHG | failed
9 | MGRFHQYQPRQLSVASVNHADDNDRLPAISLVTPSFNQASFVEKTLESVLGQNYPKLQYIVQDGLSTDGTREILGRYATRNVDIRIETDGGQTDALNKGFAHADGEIMGYLNSDDLLLPGTLCLVGRYFRDNPSVDVIYGNRLIVDEAGREVGRWVLPEHDSEILTFIDYVPQETMFWRRRIWERVGGRFDTDFHFAMDWELLLRFIHAGAVFRHLPGLFGAFRVHGQQKSQAEFLVRGIGEMNGLRLRYGGRNISFVRRIALHWAYLSQHRLADAAFEASLRKNG | failed
10 | MGRGYEVISTEVCPLCKGKGKSKSVDFMKISEKDIDSFLKNGAVCEKCKGKGSIEITRPCEACEGLGKIYTCKVCGARIHNPEDAEDEICSTCARSQHVYALDESCDLEHHHHHH | not failed
11 | MGRKIVFFDIDGTLLDEQKQLPLSTIEAVRRLKQSGVYVAIATGRAPFMFEHVRKQLGIDSFVSFNGQYVVFEGNVLYKQPLRREKVRALTEEAHKNGHPLVFMDAEKMRASIGDHPHIHVSMASLKFAHPPVDPLYYENKDIYQALLFCRAEEEEPYVRNYPEFRFVRWHDVSTDVLPAGGSKAEGIRMMIEKLGIDKKDVYAFGDGLNDIEMLSFVGTGVAMGNAHEEVKRVADFVTKPVDKEGIWYGLKQLQLIR | not failed
12 | MGRKVRAYFVHLFTASGVAFAFLAMREVVRVDLDPRWVFGWLTLAVFIDAADGPLARLWDVKLYASRILGKTIDLIVDYLTFTFIPLTLVWRMDWLPGWDGLWVTLAMVASLLGFANTAAKQSQEGFFLGFPSYWNVVAYYVGLLAVEYGAVGAYVSLGSVLTLTVLTLVPVRFVYPNAAPTPWRAIVTVGGVAWLGLLLALLPTFPELPAWGGDWVLGVSFVYPAFYFGLSGWLDWTSRQS | failed
13 | MGRLFVVNLEGKIYSCKHCKTHLATYEDIISKSFHCKHGKAYLFNKVANVSIGETEERLMMTGKHTVADIFCVSCGSIVGWKYETAHEKNQKYKEGKSVLERFKISGPDGSNYWVSSHGRHIGGSDADDA | failed
14 | MGRLGWVDPESFMQRNHELMDAYSAGKLAMEEFMAFSLEPMAGRTPEEVDHLVGPWVEDVIEPIIYSDACKCIAQHRAKGDRILVISASGVHLVKPIAERLGIDEVLGIELDVQHGVYSGATVGVLTYREGKITRLMEWLDAEGENLEGASFYSDSRNDLPLLLKVDHPNVVNPDPVLLEHAQQAGWPVHTWV | failed
15 | MGRRKKILFTDYFINLVDTYKLNQVGERTYNKYCLTHRHLKKICPDLYLQDMNANDYQQILNEFGKTHEKATTVDFHHQLAWALKRAYNVDGLTDRDVTYDAQIPKGVVTNKKKPKFMELDDMKKLVVTLKYLNSSYANFFLILLKTGLRFAELLGITLEDIDFEKKTISINKTLDYKKGAYDENFSRRFKSTKNKYSIRTIPVDDAVIYMFWRNAKGADKDESIFGSIKGFQYNSSLNNKLEQTCKYAGVPVITLHGLRHEHATYLVSQGIDSRAVAERLGHVDDSVTREVYIHRLETERVRDNQQIMRSVSKI | failed
16 | MGRRLVPLTLDNLPDLPKRCRACVFWELDPVSGEAAVKAGTSALEKEAWISAVLLDWGSCGRVVYVDDVPVGFVLYAPPAYVPRSTAFPTSPVSPDAVQLMTAFIMPGYQGQGLGRVMVQTVAKDLLRRGFKAIEAFGDAHWK | failed
17 | MGRVKLELKRIEKSTNRQITFSKRKKGLIKKAYELSTLCDIDLALLMFSPSDRLCLFSGQTRIEDVLARYINLPDQERENAIVFPDQSKRQGIQNKEYLLRTLEKLKIEDDMALQINEPRFIPH | failed
18 | MGRVLDRIEVVAEEIRGQAVQSEADCRLTDAAAGLLRDSGAIRLLQPRLYGGYEVHPREFAETVMGVAALDGASGWVTGIVGVHPWELAFADPQVQEEIWGEDNDTWMASPYAPMGVATPVDGGYVLKGRWSFSSGTDHCQWAFLGAMVGDGEGGIATPSSLHVILPRTDYQIVEDTWDVIGLRGTGSKDLIVDGAFVPGYRTLNAAKVMDGRAQKEAGRPEPLFNMPYSCMFPLGITAAVIGITEGALACHIAVQKDRVAITGQKIKEDPYVLSAIGESAAEINASRVSLIETADRFYDKVDAGKEITFEERAIGRRTQIAAAWRAVRAADEIFARAGGGALHYKTPMQRFWRDAHAGLAHAVHVPGPTNHASALTQLGGEPQGMMRAMI | not failed
19 | MGSIDRYIFRTTLVSFAVVMGSLTGVIWITQALRGIDLMTSQGQTIITFLGLTGLAVPVLVLVIAPIALMIAVAHTLNRLATDSEIIVMNAAGLSPIRLFRPFFYATMVVAALVIIIGAYIAPDGLRRIARWDSEITADVLANVLQPGRFAQLEQGLTIRVRERQPGGLLVGVFIDDARAPNERVSIIADHGTVVKNDKGSFLVLEDGHLERFQTGKQEPALVAFSRYAFDMSKFSRARDVAYGIRERYLWELLWPAENDPLLARLPTEFRSEMHDRLLAPIYPFFFAAVAFAFLGLARTTRQSRNFSMAGAVLVAFVVRLAGFALSVIANKTPYVAGLQYLLLFVATGTCLWLINRNVVIEPPARVTEALNAFNASIARLIRRPVPA | failed
